Results taken from publication PMC9482650, “Quantitative fragmentomics allow affinity mapping of interactomes” (Nature Communications, 2022).

T1: MPP7, Q5T2T1
T1 sequence (Q5T2T1 134-230, limits assumed, looked up): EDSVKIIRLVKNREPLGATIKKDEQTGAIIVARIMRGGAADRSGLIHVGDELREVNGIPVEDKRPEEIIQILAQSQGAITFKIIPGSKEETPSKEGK

T2: APBA3_1, O96018
T2 sequence (O96018 389-490, limits assumed, looked up): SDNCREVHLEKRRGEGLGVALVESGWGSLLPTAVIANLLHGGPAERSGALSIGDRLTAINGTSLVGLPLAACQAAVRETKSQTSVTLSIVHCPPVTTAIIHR

T3: MPDZ_10, O75970
T3 sequence (O75970 1624-1722, limits assumed, looked up): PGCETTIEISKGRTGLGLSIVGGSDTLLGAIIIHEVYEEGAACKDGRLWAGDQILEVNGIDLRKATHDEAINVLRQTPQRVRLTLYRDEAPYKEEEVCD

T4: MPDZ_5, O75970
T4 sequence (O75970 695-796, limits assumed, looked up): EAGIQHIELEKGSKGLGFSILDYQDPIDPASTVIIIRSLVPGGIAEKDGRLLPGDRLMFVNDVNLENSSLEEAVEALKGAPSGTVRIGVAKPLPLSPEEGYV

T5: DVL3, Q92997
T5 sequence (Q92997 244-331, limits assumed, looked up): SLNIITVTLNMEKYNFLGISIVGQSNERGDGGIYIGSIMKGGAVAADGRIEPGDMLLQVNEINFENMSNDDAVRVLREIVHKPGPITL

T6: PDZRN3_1, Q9UPQ7
T6 sequence (Q9UPQ7 244-349, limits assumed, looked up): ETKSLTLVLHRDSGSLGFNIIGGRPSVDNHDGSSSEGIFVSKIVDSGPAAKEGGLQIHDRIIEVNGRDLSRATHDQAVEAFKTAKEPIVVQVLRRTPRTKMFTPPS

T7: SNTB1, Q13884
T7 sequence (Q13884 107-205, limits assumed, looked up): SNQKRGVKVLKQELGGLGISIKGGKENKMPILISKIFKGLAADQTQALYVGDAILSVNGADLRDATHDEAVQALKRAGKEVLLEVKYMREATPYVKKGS

T8: RHPN1, Q8TCX5
T8 sequence (Q8TCX5 508-602, limits assumed, looked up): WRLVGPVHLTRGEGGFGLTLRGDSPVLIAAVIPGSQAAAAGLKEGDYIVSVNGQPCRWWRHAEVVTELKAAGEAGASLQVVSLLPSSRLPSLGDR

T9: LRRC7, Q96NW7
T9 sequence (Q96NW7 1440-1537, limits assumed, looked up): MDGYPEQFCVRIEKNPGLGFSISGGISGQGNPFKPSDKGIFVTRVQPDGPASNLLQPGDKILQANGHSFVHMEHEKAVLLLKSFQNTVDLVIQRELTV

T10: DLG3_3, Q92796
T10 sequence (Q92796 374-475, limits assumed, looked up): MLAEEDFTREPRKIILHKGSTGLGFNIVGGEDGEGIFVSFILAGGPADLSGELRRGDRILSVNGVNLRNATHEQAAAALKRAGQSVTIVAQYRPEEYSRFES

T11: DFNB31_1, Q9P202
T11 sequence (Q9P202 135-233, limits assumed, looked up): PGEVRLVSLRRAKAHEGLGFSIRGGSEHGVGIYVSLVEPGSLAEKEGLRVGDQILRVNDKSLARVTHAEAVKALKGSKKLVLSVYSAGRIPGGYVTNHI


Tests used:
Assay in all cases: holdup assay
Design in all cases: key: below the threshold = too weak to quantify, mostly under pKd 3.1 to 4
Conditions in all cases: plain residues with an end cap or a label only (N-terminal biotin on a linker: ado-ado)
MPP7, Q5T2T1 = target: T1, MPP7, Q5T2T1
APBA3_1, O96018 = target: T2, APBA3_1, O96018
NHERF4_4, Q86UT5 = target: NHERF4_4, Q86UT5
MPDZ_10, O75970 = target: T3, MPDZ_10, O75970
MPDZ_5, O75970 = target: T4, MPDZ_5, O75970
DVL3, Q92997 = target: T5, DVL3, Q92997
PDLIM1, O00151 = target: PDLIM1, O00151
DLG2_2, Q15700 = target: DLG2_2, Q15700
PDZRN3_1, Q9UPQ7 = target: T6, PDZRN3_1, Q9UPQ7
SNTB1, Q13884 = target: T7, SNTB1, Q13884
RHPN1, Q8TCX5 = target: T8, RHPN1, Q8TCX5
LRRC7, Q96NW7 = target: T9, LRRC7, Q96NW7
SCRIB_1, Q14160 = target: SCRIB_1, Q14160
FRMPD2_1, Q68DX3 = target: FRMPD2_1, Q68DX3
Inadl_4, Q8NI35 = target: Inadl_4, Q8NI35
DLG3_3, Q92796 = target: T10, DLG3_3, Q92796
DFNB31_1, Q9P202 = target: T11, DFNB31_1, Q9P202
NHERF4_1, Q86UT5-2 = target: NHERF4_1, Q86UT5-2
SCRIB_3, Q14160 = target: SCRIB_3, Q14160
TJP1_2, Q07157 = target: TJP1_2, Q07157
GRIP2_6, Q9C0E4 = target: GRIP2_6, Q9C0E4
GORASP2, Q9H8Y8 = target: GORASP2, Q9H8Y8
Inadl_3, Q8NI35 = target: Inadl_3, Q8NI35
IL16_1, Q14005 = target: IL16_1, Q14005
GORASP1, Q9BQQ3 = target: GORASP1, Q9BQQ3
Inadl_1, Q8NI35 = target: Inadl_1, Q8NI35
Inadl_1, Q8NI35, sequence (Q8NI35 113-229): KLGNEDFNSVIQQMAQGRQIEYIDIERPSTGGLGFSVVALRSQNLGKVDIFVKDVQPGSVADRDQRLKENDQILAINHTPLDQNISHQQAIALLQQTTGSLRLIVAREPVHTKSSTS

Inadl_3, Q8NI35, sequence (Q8NI35 359-469): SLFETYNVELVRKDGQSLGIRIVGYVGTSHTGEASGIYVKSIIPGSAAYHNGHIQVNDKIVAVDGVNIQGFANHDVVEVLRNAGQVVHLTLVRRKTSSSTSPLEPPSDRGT
IL16_1, Q14005, sequence (Q14005 210-306): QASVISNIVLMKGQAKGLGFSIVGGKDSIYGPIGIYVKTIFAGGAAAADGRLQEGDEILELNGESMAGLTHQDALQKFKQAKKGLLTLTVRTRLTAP
NHERF4_1, Q86UT5-2, sequence (Q86UT5 other isoform, or with tags, fused parts or gaps): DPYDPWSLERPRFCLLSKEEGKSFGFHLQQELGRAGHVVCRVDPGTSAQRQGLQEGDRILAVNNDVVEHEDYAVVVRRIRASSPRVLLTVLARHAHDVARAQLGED
NHERF4_4, Q86UT5, sequence (Q86UT5 464-550): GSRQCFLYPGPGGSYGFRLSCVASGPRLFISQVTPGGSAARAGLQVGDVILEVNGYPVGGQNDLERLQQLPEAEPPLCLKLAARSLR
Inadl_4, Q8NI35, sequence (Q8NI35 547-651): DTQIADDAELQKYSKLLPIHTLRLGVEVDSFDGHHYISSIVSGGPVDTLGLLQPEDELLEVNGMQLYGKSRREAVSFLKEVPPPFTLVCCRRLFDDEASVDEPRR
DLG2_2, Q15700, sequence (Q15700 189-283): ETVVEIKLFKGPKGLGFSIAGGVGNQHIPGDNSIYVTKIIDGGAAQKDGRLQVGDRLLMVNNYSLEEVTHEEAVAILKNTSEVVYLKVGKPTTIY
GRIP2_6, Q9C0E4, sequence (Q9C0E4 648-740): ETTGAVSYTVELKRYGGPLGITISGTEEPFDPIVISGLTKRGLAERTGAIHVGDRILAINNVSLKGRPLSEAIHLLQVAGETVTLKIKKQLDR
SCRIB_3, Q14160, sequence (Q14160 999-1103): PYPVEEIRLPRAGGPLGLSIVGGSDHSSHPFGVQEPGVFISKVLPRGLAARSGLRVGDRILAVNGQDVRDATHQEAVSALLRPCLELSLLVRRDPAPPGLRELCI
TJP1_2, Q07157, sequence (Q07157 181-274): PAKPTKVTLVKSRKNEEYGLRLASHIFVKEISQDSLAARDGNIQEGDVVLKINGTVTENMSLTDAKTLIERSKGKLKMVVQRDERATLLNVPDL
FRMPD2_1, Q68DX3, sequence (Q68DX3 770-861): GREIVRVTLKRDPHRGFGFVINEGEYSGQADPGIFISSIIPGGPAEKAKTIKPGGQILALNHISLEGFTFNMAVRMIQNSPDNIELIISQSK
PDLIM1, O00151, sequence (O00151 1-87): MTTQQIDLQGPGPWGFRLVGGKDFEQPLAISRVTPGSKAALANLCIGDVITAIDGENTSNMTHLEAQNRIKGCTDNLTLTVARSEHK
SCRIB_1, Q14160, sequence (Q14160 718-814): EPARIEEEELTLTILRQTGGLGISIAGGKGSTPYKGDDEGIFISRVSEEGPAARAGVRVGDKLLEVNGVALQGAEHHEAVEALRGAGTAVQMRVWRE
GORASP1, Q9BQQ3, sequence (Q9BQQ3 1-208): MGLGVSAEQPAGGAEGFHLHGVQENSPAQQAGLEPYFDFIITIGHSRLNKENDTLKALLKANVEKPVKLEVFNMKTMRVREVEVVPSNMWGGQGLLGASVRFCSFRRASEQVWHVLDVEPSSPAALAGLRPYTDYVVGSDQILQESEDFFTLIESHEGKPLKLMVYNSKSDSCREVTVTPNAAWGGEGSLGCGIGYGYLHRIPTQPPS

Row | Binder | pKd (MPP7, Q5T2T1) | pKd (APBA3_1, O96018) | pKd (NHERF4_4, Q86UT5) | pKd (MPDZ_10, O75970) | pKd (MPDZ_5, O75970) | pKd (DVL3, Q92997) | pKd (PDLIM1, O00151) | pKd (DLG2_2, Q15700) | pKd (PDZRN3_1, Q9UPQ7) | pKd (SNTB1, Q13884) | pKd (RHPN1, Q8TCX5) | pKd (LRRC7, Q96NW7) | pKd (SCRIB_1, Q14160) | pKd (FRMPD2_1, Q68DX3) | pKd (Inadl_4, Q8NI35) | pKd (DLG3_3, Q92796) | pKd (DFNB31_1, Q9P202) | pKd (NHERF4_1, Q86UT5-2) | pKd (SCRIB_3, Q14160) | pKd (TJP1_2, Q07157) | other results
1 | DDEDRLVIEI [ZNF831, Q5JPB2] | 3.64 | below the threshold | 3.66 | below the threshold | below the threshold | below the threshold | below the threshold | below the threshold | below the threshold | below the threshold | 3.53 | below the threshold | below the threshold | below the threshold | below the threshold | below the threshold | below the threshold | below the threshold | 3.48 | below the threshold | pKd (GRIP2_6, Q9C0E4): below the threshold; pKd (GORASP2, Q9H8Y8): 4.72; pKd (Inadl_3, Q8NI35): 4.8; pKd (IL16_1, Q14005): below the threshold; pKd (GORASP1, Q9BQQ3): 4.12; pKd (Inadl_1, Q8NI35): 3.64
2 | QMNQTLPVQV [EPHB3, P54753] | below the threshold | below the threshold | 3.92 | 3.49 | 3.84 | below the threshold | below the threshold | below the threshold | 3.51 | below the threshold | below the threshold | below the threshold | below the threshold | 4.36 | below the threshold | 3.56 | 3.51 | below the threshold | 3.48 | 3.72 | pKd (GRIP2_6, Q9C0E4): below the threshold; pKd (GORASP2, Q9H8Y8): 3.81; pKd (Inadl_3, Q8NI35): 3.55; pKd (IL16_1, Q14005): below the threshold; pKd (GORASP1, Q9BQQ3): 3.58; pKd (Inadl_1, Q8NI35): below the threshold
3 | IPLDGETEEL [MYOZ1, Q9NP98] | below the threshold | below the threshold | below the threshold | below the threshold | below the threshold | below the threshold | 4.18 | below the threshold | below the threshold | below the threshold | below the threshold | below the threshold | below the threshold | below the threshold | below the threshold | below the threshold | below the threshold | 4.2 | below the threshold | below the threshold | pKd (GRIP2_6, Q9C0E4): below the threshold; pKd (GORASP2, Q9H8Y8): below the threshold; pKd (Inadl_3, Q8NI35): below the threshold; pKd (IL16_1, Q14005): below the threshold; pKd (GORASP1, Q9BQQ3): below the threshold; pKd (Inadl_1, Q8NI35): below the threshold
4 | QSLNRMEYIV [JAG1, P78504] | 3.98 | below the threshold | below the threshold | below the threshold | 4.07 | 3.78 | below the threshold | below the threshold | below the threshold | below the threshold | below the threshold | below the threshold | below the threshold | 3.89 | below the threshold | below the threshold | below the threshold | below the threshold | below the threshold | below the threshold | pKd (GRIP2_6, Q9C0E4): 4.61; pKd (GORASP2, Q9H8Y8): 5.14; pKd (Inadl_3, Q8NI35): 5.17; pKd (IL16_1, Q14005): 3.91; pKd (GORASP1, Q9BQQ3): 4.71; pKd (Inadl_1, Q8NI35): 3.69
5 | RHGSCVETSL [TMEM151B, Q8IW70] | below the threshold | below the threshold | below the threshold | below the threshold | below the threshold | below the threshold | 3.65 | 4.32 | 5.2 | 4.88 | 5.02 | 4.08 | 5.5 | below the threshold | below the threshold | 4.2 | 4.61 | 4.51 | 5.36 | below the threshold | pKd (GRIP2_6, Q9C0E4): below the threshold; pKd (GORASP2, Q9H8Y8): below the threshold; pKd (Inadl_3, Q8NI35): 3.59; pKd (IL16_1, Q14005): 3.62; pKd (GORASP1, Q9BQQ3): below the threshold; pKd (Inadl_1, Q8NI35): below the threshold
6 | PKRSFIESNV [TANC1, Q9C0D5] | below the threshold | below the threshold | 3.83 | below the threshold | below the threshold | below the threshold | below the threshold | 4.72 | 3.87 | 5 | 4.38 | 4.61 | 5.2 | below the threshold | below the threshold | 4.23 | 3.83 | below the threshold | 5.05 | below the threshold | pKd (GRIP2_6, Q9C0E4): below the threshold; pKd (GORASP2, Q9H8Y8): 4.06; pKd (Inadl_3, Q8NI35): 3.56; pKd (IL16_1, Q14005): 4.83; pKd (GORASP1, Q9BQQ3): below the threshold; pKd (Inadl_1, Q8NI35): below the threshold
